Laboratory results taken from the DeepSol protein solubility set.

Assay: soluble on expression in E. coli; label from the status in PepcDB or PDB records

Sequence	soluble on expression in E. coli
MAPSGGQEAQICDSETFGDSDFVVVANRLPVDLERLPDGSTTWKRSPGGLVTALEPVLRRRRGAWVGWPGVNDDGAEPDLHVLDGPIIQDELELHPVRLSTTDIAQYYEGFSNATLWPLYHDVIVKPLYHREWWDRYVDVNQRFAEAASRAAAHGATVWVQDYQLQLVPKMLRMLRPDLTIGFFLHIPFPPVELFMQMPWRTEIIQGLLGADLVGFHLPGGAQNFLILSRRLVGTDTSRGTVGVRSRFGAAVLGSRTIRVGAFPISVDSGALDHAARDRNIRRRAREIRTELGNPRKILLGVDRLDYTKGIDVRLKAFSELLAEGRVKRDDTVVVQLATPSRERVESYQTLRNDIERQVGHINGEYGEVGHPVVHYLHRPAPRDELIAFFVASDVMLVTPLRDGMNLVAKEYVACRSDLGGALVLSEFTGAAAELRHAYLVNPHDLEGVKDGIEEALNQTEEAGRRRMRSLRRQVLAHDVDRWAQSFLDALAGAHPRGQG	not soluble
MAPSQAPSRDRAGQEDEDRWEARGDRKARKPLVEKKRRARINESLQELRLLLAGTEVQAKLENAEVLELTVRRVQGALRGRAREREQLQAEASERFAAGYIQCMHEVHTFVSTCQAIDATVSAELLNHLLESMPLREGSSFQDLLGDSLAGLPGGSGRSSWPPGGSPESPLSSPPGPGDDLCSDLEEIPEAELNRVPAEGPDLVSTSLGSLTAARRAQSVWRPW	not soluble
MAPTMNNGWMDSLSWIKSETPENSVVTCWWDNGHIYTWATRKMVTFDGGSQNTPRAYWVGHAFSTSDENLSVGILRMLATSGDSAYDDDSILIKKTGSIKDTVDILNKILPLTRTEAKASLVNNYDLTDAEAEEVLDLTHPKVTNPDYLITYNRMTSIASVWSMFGNWNFSLPASTENSDREMGLEHHHHHH	soluble
MAPTNKDGDVATVKAVDVLKQKAGAHHCLGNVHANLPVNKVTVHPLVLLSVVDHFNRVSKTQSVKRVVGVLLGSMKKDKTLDIGNSFAVPFDEDDKDKSTWFLDMDYLESMYGMFYKVAAKEKIVGWYHTGPKLHKNDIAINEQLKRFCPNPVLVIIDAEPKNIGLPTEAYIEVQEVHDDGTPPIKTFEHVPSDIGAEEAEEVGVEHLLRDIKDQTAGTLSQRITDQLMGLRGLQSQLESIEKYLHDIVRGTLPVNHHVIYYVQEVLNLLPDVTHPDYIVSQNVQTNDQLMCVYMGSLVRSVVALHNLIDNKISLQKAEKEQETGEAEKKKDEKDKKDKKDEKKDEKKEKDSKSSTPNTPKK	not soluble
MAQFSIFPEQNSLQDLLNIHSVQEDTQYKSMGIYDLKTCEIPMRPPTHQNPAQKEHNTMEDEMMAVLNSFSRRIEIMSAPEPKAFRYYFEISPPPKPEAPKSQLGLGDLSEESYPLTPEPIQLDTCLTWSPVELQFDPFAEPEPIFYNEEMDSGPTPEPIPDIFESPRSEVEAVKMFRSEVIYEDFAEE	not soluble
MAQHEVITRGGDAFLLKLRESALSSGSMSEEQFFLLIGISSIHSDRVILAMKDYLVSGHSRKDVCEKYQMNNGYFSTTLGRLTRLNVLVARLAPYYTDSVSAIAEAASL	soluble
MAQKSALIILAAEGAEEMEVIITGDVLARGEIRVVYAGLDGAEPVKCARGAHIVPDVKLEDVETEKFDIVILPGGQPGSNTLAESLLVRDVLKSQVESGGLIGAICAAPIALLSHGVKAELVTSHPSVKEKLEKGGYKYSEDRVVVSGKIITSRGPGTAFEFALKIVELLEGKDKATSLIAPMLLKL	not soluble
MAQVFNFSSGPAMLPAEVLKLAQQELCDWHGLGTSVMEISHRGKEFIQVAEEAEQDFRDLLNIPSNYKVLFCHGGGRGQFAGVPLNLLGDKTTADYVDAGYWAASAIKEAKKYCAPQIIDAKITVDGKRAVKPMREWQLSDNAAYLHYCPNETIDGIAIDETPDFGPEVVVTADFSSTILSAPLDVSRYGVIYAGAQKNIGPAGLTLVIVREDLLGKAHESCPSILDYTVLNDNDSMFNTPPTFAWYLSGLVFKWLKAQGGVAAMHKINQQKAELLYGVIDNSDFYRNDVAQANRSRMNVPFQLADNTLDKVFLEESFAAGLHALKGHRVVGGMRASIYNAMPIEGVKALTDFMIDFERRHG	not soluble
MARDGAVYACQSCGAVQTKWSGQCSACQSWNTLVEEVSAKPPGALSATKATRVRGLQFTGLESETAPPPRILTGVDEFDRVCGGGVVPGSALLIGGDPGVGKSTLLLQVCASAAARGVSCAYISGEEAVEQIRGRADRMGLAKANVSLAAETALRDILDGLKRDNFDLVVIDSIQTMWSDAHEAGPGTVTQVRACATELVRLAKKKGVAILLVGHVTKDGQIAGPRVVEHLVDAVLSFEGERGYPFRILRGAKNRFGATDEIGVFEMGDVGLREVKNPSALFLNEGGERAAGAAVFAGIEGSRPVLVEFQALVAPSAYGTPRRAVVGWDSGRLAMVLAVLEARCGLGFGDKDVYLNVAGGLRITEPAADLAAAAALASSALDVALPQDCVVFGELSLSGEVRPVSRMETRLKEAAKLGFGRALGPLAGLPEGGGALPVAGVARLTDAVRRIGDEIWTSLT	soluble
MARGIWGVDSAQVVTDQLFQCVRTELGYPKFWGRYLSEVPNVSEGLTRDEIVRIRNYGVKVLPIYNAFREAVGYANGQVAARNAVFHARRLGIPKNKLLFANIEDFFAVDAAWIAAWVETLYPTGYRPGLYADPTKGDFAAAYCEAVSRNNQVAVQAVIWSAAPRPGTTKEQKAPRYQPAAPPCSANVWVWQYGRDAEVCPVDTNLADRRLLDFLY	soluble
MARGREAVTLLLVGWGYAPGMQTLEALDAVRRADVVYVESYTMPGSSWLYKSVVEAAGEARVVEASRRDLEERSREIVSRALDAVVAVVTAGDPMVATTHSSLAAEALEAGVAVRYIPGVSGVQAARGATMLSFYRFGGTVTLPGPWRGVTPISVARRIYLNLCAGLHTTALLDVDERGVQLSPGQGVSLLLEADREYAREAGAPALLARLPSVLVEAGAGGGHRVLYWSSLERLSTADVEGGVYSIVIPARLSGVEEWLLAAASGQRRPLEYDRSVYETVEENCKKGVYMEPV	soluble
MARLKTAQPNSSLRKIAVVVATAVSGMSVYAQAAVQPKEETITVTAAPAAQESAWGPAPTIAAKRSATTTKTDTPIEKTPQSVSVVTNEEMQMHQFQSVKEALGYTPGVTVSSRGASNTYDFVIIRGFSSVGLSQNNYLDGLKLQGNFYNDAVIDPYMLERVELMRGPTSVLYGKSNPGGIISMVSKRPTTEPLKEIQFKMGTDNLFQTGFDFSDSLDDNGEFSYRLTGLARSTNEQQKSSESQRYAIAPSFTWRPDEKTNFTFLSYFQNEPETGYYGWLPKEGTVEPLPNGKRLPTDFNEGASNNTYSRNEKMVGYSFEHGFNDTFTVRQNLRFVEMKTAQKSVYGTGIAADGHTLNRGTIVDNERLQNFSVDTQLESKFATGDIDHTLLTGVDFMRMRNDINATFGSAPSIDLYNNYHPEYFAFGGAEPYQMNESKQTGLYVQDQAEWNKWVFTLGGRYDWSKQATTVRQNSTTPTEGYIERNDHQFTWRGGVNYVFDNGISPYFSYSQSFEPSAFDLWSTPRVSYKPSKGEQYEAGVKYVPKDMPVVVTGAVYQLTKTNNLTADPTNPLAQVPAGEIRARGVELEAKAALTANINMTASYTYTDAEYTKDTNLKGNTPEQVPEHMASLWGDYTFNEGPLSGLTLGTGGRFIGSSYGDPANSFKVGSAAVMDAVVKYDLARFGMAGSSIAVNVNNLLDREYVASCFQTYGCFWGAERQVVATATFRF	not soluble
MARMKARSAKGKRVAKDTWKSKVWYDIYTPQSFGGDVIGQTPANDPANLIGRISEISLRDLTNEHSKHMTRMYFKVDGVSGNNATSQFVGHDTTREYLKSQVRRRRSKINAIVEVRTKDGFKVRVKALVLTAVRARDHHKTEIRVRMEQIIKEMAKETPFAEFVHAMLMGGLGSKIYGDCKKMFPLKRVEIFKSEVIEFGKAAEAPVEEAAAEEVVEEAAAETQELEHHHHHH	soluble
MASFVEMRKLAEAKVQNMIRTIVKPKEQNGNVEPKKEEDEKFESTYKQNENTQITPSSFGKRPLYSKVDINCDKWLMTLDEESRLKIDNPPSLVDGLSKETESELRYLGCELIQQGAILLKLPQTAAATGQILFQRYYYQKSFVRYHFEHAVQACLLLASKIEEEPRRPREVYNVFHRLERLHRLQQSGHDINKRLEAKHGSSILRCFG	not soluble
MASGASATQRIPSKRQTLDEAYAPPANFLEIEVINPITHGVGKMRYTDYEIRMRSNLPVFKQKESSVRRRYSDFEWVRAELERDSKIVVPTLPGKSFKRQLPFRSDDGIFEEEFIENRRKALELFINKVAGHPLAQNERSLHIFLQEPTIDKNYVPGKIRTA	soluble
MASGKVRCTRKLRSWIVEQVESGHFPGVCWDDAAKTMFRIPWKHAGKQDFREDQDAAIFKAWALFKEKHKDGDIGHPAVWKTRLRCALNKSSEFEEVPERGRMDVAEPYKVYRILPAGTLPNQPRNQKSPCKRSISCVSPEREENMENGRTNGVVNHSDSGSNIGGGGNGSNRSDSNSNCNSELEEGAGTTEATIREDPVFLEHQLPLNSDYSLLLTFIYGGRVVGKTQVHSLDCRLVAERSDSESSMEQVEFPKPDPLEPTQHLLNQLDRGVLVASNSRGLFVQRLCPIPISWNAPEAPPGPGPHLLPSNKCVELFKTTYFCRDLAQYFQGQGPPPKFQATLHFWEESPGSSHSQENLITVQMEQAFARHLLEKIPEEEKAALFLLQHTEQSPSALGH	soluble
MASHWMIYGANGYTGRLVAEQAQREGLTPLLGGRNPAALHALGSQLGLECRVFDLGDPQACREALDQVKVVAHCAGPFSATSTPMIAACRAAGTHYVDITGEIAVFEQAHAGDAEAREAGIVVCPGVGFDVIPTDCLAACLKEALPDAQRLALGFDTGSGLSTGTAKTSVEGLKFGGKIRENGRLRDVPLGYKRRDIDFGRGLRHAVTIPWGDVATAYYSTGIPDIEVYLPAPPLLALGMRLIDPLRPLLGRQRVQDWLKGQVDKRIAGPDQAARERLRTWVWGEARNARGERRTARLETANVYDLTLHGVLLAVRHLLDYQGPGGYFTPSRLLGARCVESLPGSGRITVIG	not soluble
MASIKKVYRGMKNGAETINDDLEAINSELTSGGNVVHKTGDETIAGKKTFTGNVEVNGSLTLPTKSWSGELGGGIILSLRKKGTTVEYSIGGEISSSILANSNLVNRSVPNEFCPRNRCSLVGHMVGGWNAFHIDIPSSGVCQWFGPTASSGTPRGTGTYPIDHHHHHH	soluble
MASIPTVNVIGAGLAGSEAAWHIANMGVNVRLYEMRPNKMTPAHHTAQFAELVCTNSLRANQLANAAGLLKAEMRQMDSIVMQAAEHHAVPAGGALAVDRDTFSAEITAAITALPNVEIINEEITSLPDGITVVATGPLTAASLAKSIQAFNDEDDLHFFDAAAPILTKDSIDMDKVYLKSRYDRGEAAYLNCPMTEAEFDVFYDALIHAEMAEAHDFENSDVFEGCMPIEVMAQRGRQTMLFGPLKPVGLEDPKTGKQPFAVVQLRQDDAAGDLYNIVGFQTHLKWGEQKRVFSLIPGLENVEFVRYGVMHRNTFMKSPKLLTPTYQTQQRPDLFFAGQMTGVEGYIESAASGIVAGTNAARLALGLEPVVFPTDTMMGAMAHYITHTSASNFQPMNANFGIMPKLKQRIRDKRERNTAISERALADLTTFKDETLTVNNLEHHHHHH	soluble
MASKTIKIMPVGDSCTEGMGGGEMGSYRTELYRLLTQAGLSIDFVGSQRSGPSSLPDKDHEGHSGWTIPQIASNINNWLNTHNPDVVFLWIGGNDLLLNGNLNATGLSNLIDQIFTVKPNVTLFVADYYPWPEAIKQYNAVIPGIVQQKANAGKKVYFVKLSEIQFDRNTDISWDGLHLSEIGYKKIANIWYKYTIDILRALAGETQLEHHHHHH	soluble
